# Test results from US20250242041A1 (Seagen, published 2025).
# Where a chain is given by its changes, count along the chain named.
# T1: human αvβ6 on 293F:huβ6 cells (human, UniProt P06756 31-1048; P18564 22-788)
# T1 chain 1: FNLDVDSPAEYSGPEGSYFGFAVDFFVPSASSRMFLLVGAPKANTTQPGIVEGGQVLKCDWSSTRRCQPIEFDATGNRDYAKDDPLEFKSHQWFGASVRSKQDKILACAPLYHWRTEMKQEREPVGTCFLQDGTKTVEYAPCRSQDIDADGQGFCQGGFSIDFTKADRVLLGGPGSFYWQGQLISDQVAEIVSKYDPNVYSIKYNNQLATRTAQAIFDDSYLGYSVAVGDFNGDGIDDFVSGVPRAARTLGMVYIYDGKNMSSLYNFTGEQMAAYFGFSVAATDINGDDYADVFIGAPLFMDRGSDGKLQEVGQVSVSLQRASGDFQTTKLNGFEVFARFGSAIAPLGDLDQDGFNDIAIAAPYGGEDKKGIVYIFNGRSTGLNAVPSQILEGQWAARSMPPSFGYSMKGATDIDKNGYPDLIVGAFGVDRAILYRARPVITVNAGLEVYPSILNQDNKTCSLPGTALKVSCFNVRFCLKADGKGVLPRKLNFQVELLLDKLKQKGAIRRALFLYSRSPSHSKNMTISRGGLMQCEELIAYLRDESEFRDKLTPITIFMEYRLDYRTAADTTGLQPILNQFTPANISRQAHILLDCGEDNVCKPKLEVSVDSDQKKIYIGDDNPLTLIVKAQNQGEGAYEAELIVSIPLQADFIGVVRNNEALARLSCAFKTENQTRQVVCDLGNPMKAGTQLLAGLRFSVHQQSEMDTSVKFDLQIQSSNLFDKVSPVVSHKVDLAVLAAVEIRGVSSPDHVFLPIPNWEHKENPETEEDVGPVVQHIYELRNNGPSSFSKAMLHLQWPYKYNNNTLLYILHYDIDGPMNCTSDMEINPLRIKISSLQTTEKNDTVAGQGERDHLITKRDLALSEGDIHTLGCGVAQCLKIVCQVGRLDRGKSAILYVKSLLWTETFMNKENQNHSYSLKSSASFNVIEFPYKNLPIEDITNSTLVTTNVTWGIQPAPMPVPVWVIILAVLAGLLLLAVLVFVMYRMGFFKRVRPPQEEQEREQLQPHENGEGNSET
# T1 chain 2: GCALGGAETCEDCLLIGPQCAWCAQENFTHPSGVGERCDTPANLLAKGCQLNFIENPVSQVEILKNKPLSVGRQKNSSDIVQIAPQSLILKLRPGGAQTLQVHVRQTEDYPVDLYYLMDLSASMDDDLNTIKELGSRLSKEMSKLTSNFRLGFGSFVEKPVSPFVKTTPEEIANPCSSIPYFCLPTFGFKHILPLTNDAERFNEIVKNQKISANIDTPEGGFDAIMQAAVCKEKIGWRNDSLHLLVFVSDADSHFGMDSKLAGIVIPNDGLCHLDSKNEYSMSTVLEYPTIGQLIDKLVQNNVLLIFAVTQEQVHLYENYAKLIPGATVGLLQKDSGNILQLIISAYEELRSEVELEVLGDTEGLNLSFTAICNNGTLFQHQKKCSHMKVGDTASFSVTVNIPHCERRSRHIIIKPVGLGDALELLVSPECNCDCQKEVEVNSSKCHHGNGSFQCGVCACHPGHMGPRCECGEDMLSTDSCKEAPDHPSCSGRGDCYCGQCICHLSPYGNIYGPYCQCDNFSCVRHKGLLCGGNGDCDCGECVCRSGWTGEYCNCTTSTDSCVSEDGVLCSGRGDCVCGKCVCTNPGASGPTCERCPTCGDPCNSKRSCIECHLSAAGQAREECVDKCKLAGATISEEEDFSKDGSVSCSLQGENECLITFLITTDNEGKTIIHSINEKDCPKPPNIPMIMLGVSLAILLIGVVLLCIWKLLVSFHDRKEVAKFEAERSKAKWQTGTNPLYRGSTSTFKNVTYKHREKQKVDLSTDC
# T2: cyno αvβ6 on 293F:cynoβ6 cells (human;Macaca fascicularis, UniProt P06756 31-1048; A0A2K5TZ36 22-787)
# T2 chain 1: T1 chain 1
# T2 chain 2: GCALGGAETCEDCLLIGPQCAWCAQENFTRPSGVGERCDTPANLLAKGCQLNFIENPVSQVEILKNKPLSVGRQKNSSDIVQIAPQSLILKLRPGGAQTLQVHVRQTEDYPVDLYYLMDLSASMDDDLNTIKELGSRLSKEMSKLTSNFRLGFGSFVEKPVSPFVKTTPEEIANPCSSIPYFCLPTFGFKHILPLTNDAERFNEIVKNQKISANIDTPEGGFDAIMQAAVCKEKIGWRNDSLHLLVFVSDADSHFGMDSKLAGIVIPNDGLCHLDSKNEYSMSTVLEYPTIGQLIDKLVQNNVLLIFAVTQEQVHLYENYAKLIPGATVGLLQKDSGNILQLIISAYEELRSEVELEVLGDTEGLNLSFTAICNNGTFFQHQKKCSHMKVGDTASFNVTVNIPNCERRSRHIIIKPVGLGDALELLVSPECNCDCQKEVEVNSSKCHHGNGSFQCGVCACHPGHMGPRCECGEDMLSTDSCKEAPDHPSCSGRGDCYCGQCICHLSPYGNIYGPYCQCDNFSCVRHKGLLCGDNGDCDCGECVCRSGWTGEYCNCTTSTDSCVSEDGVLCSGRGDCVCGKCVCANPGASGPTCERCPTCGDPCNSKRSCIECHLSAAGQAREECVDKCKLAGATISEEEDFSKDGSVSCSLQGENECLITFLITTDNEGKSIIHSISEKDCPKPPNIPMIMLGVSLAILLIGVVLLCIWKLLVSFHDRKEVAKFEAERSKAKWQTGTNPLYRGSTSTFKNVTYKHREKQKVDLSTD
# B1: h2A2-Mdpr-PEG(12)-gluc-MMAE(8) (antibody, human IgG1, kappa, V domains shown)
# VH: QFQLVQSGAEVKKPGASVKVSCKASGYSFTDYNVNWVRQAPGQGLEWIGVINPKYGTTRYNQKFKGRATLTVDKSTSTAYMELSSLRSEDTAVYYCTRGLNAWDYWGQGTLVTVSS
# VL: DIQMTQSPSSLSASVGDRVTITCGASENIYGALNWYQQKPGKAPKLLIYGATNLEDGVPSRFSGSGSGRDYTFTISSLQPEDIATYYCQNVLTTPYTFGQGTKLEIKR
# modifications: SGD-5088 drug-linker (Mdpr-PEG(12)-gluc-MMAE) on cysteines of the reduced interchain disulfides, eight copies of drug-linker per antibody
# notes: also called ADC prepared with h2A2 HCLG and the SGD-5088 drug-linker; HCLG ADC
# B2: h2A2 HCLE (antibody, V domains shown)
# VH: B1 VH
# VL: B1 VL with G24Q, E55A
# B3: h2A2 HALG (antibody, V domains shown)
# VH: B1 VH with I48M, A68V, L70M, V72R, K74T, A79V
# VL: B1 VL
# B4: h2A2 HCLH (antibody, V domains shown)
# VH: B1 VH
# VL: B1 VL with E55A, Y71F
# B5: h2A2 HCLB (antibody, V domains shown)
# VH: B1 VH
# VL: B1 VL with E55A
# B6: h2A2 HALB (antibody, V domains shown)
# VH: B1 VH with I48M, A68V, L70M, V72R, K74T, A79V
# VL: B1 VL with E55A
# B7: c2A2 (antibody, V domains shown)
# VH: EFQLQQSGPELVKPGASVKISCKASGYSFTDYNVNWVKQSNGKSLEWIGVINPKYGTTRYNQKFKGKATLTVDKPSSTAYMQLNSLTSEDSAVYYCTRGLNAWDYWGQGASVTVSS
# VL: DIQMTQSPASLSASVGETVTITCGASENIYGALNWYQRKQGKSPQLLIYGATNLADGMSSRFSGSGSGRQYSFKISSLHPDDVATYYCQNVLTTPYTFGGGTKLEIK
# B8: h2A2 HBLB (antibody, V domains shown)
# VH: B1 VH with I48M, A68V, L70M, V72R, K74T, S75P, A79V
# VL: B1 VL with E55A
# B9: h2A2 HBLA (antibody, V domains shown)
# VH: B1 VH with I48M, A68V, L70M, V72R, K74T, S75P, A79V
# VL: B1 VL with E55A, R69T, Y71F
# B10: h2A2 HALA (antibody, V domains shown)
# VH: B1 VH with I48M, A68V, L70M, V72R, K74T, A79V
# VL: B1 VL with E55A, R69T, Y71F
# B11: h2A2 HCLA (antibody, V domains shown)
# VH: B1 VH
# VL: B1 VL with E55A, R69T, Y71F
# B12: h2A2 HDLA (antibody, V domains shown)
# VH: B1 VH with S75P
# VL: B1 VL with E55A, R69T, Y71F
# B13: h2A2 HDLB (antibody, V domains shown)
# VH: B1 VH with S75P
# VL: B1 VL with E55A
# Target: T3, human αvβ6 on 293F:huβ6 cells (human, UniProt P06756 31-1048; P18564 22-788)
# T3 construct: whole, on cells; also called HEK293F:huβ6
# Assay: competition binding by flow cytometry on 293F:huβ6 cells
# Protocol: 0.1×10⁶ antigen expressing cells were aliquoted in each well of a 96-well v-bottom plate on ice. The cells were incubated for 1 hour with 2 nM AlexaFluor-647 labeled humanized 2A2 HCLG and increasing concentrations (from 4 pM-1 uM) of unlabeled humanized 2A2 HCLG antibody and h2A2-Mdpr-PEG(12)-gluc-MMAE(8) in buffer (Tris-buffered saline, 2% fetal bovine serum, 0.5 mM MnCl₂, 0.02% NaN₃). Cells were pelleted and washed 3 times with TBS/FBS. The cells were pelleted and resuspended in 125 uL of TBS/FBS. Fluorescent signal of binding was detected using a Becton Dickinson Biosciences LSR II (San Jose, CA). Percent of saturated fluorescent signal was used to determine percent labeled humanized 2A2 antibody bound to cells and to subsequently extrapolate the EC50 by fitting the data to a sigmoidal dose-response curve with variable slope using GraphPad Software (LaJolla, CA).
row,binding result,Binder
1,binds,B1

# Target: T1, human αvβ6 on 293F:huβ6 cells
# Assay: competition binding on 293F cells; 2nM m2A2-AF647 competitor
row,EC50,Binder
1,2 nM,B2
2,1 nM,B3
3,46 nM,B4

# Target: T2, cyno αvβ6 on 293F:cynoβ6 cells
# Assay: competition binding on 293F cells
row,EC50,Binder
1,4 nM,B1

# Target: T1, human αvβ6 on 293F:huβ6 cells
# Assay: competition binding on 293F cells
row,EC50,Binder
1,4 nM,B1

# Target: T1, human αvβ6 on 293F:huβ6 cells
# Assay: competition binding on 293F cells; 2nM m2A2-AF647 competitor
# Remark: another data set of the same source
row,EC50,Binder
1,3 nM,B5
2,3 nM,B2
3,8 nM,B6
4,1 nM,B3
5,30 nM,B4
6,3 nM,B7

# Target: T1, human αvβ6 on 293F:huβ6 cells
# Assay: as above
# Remark: another data set of the same source
row,EC50,Binder
1,3 nM,B5
2,9 nM,B8
3,5 nM,B6
4,85 nM,B9
5,74 nM,B10
6,74 nM,B11
7,147 nM,B12
8,6 nM,B13
9,4 nM,B7
